Test: Enzymatic activity assay of free horseradish peroxidase and PRINT particles thereof
Assay type: biochemical
Details: 10 ng/mL-10 mg/mL in buffer; compared with free horseradish peroxidase
Protocol: A standard enzymatic assay of horseradish peroxidase (reference P6782; Sigma Aldrich) was conduted on free horseradish peroxidase and PRINT particles thereof in the concentration range of 10 ng/mL-10 mg/mL in buffer. The substrates used were hydrogen peroxide and pyrogallol. […] See, FIG. 32.

horseradish peroxidase PRINT particles: PRINT particles of horseradish peroxidase, 200 nm x 200 nm cylinders
retention of biological structure and function after molding (enzyme activity): retains biological structure and function
